Experimental findings from the nanobody polyreactivity screen of Harvey et al. (2022) are described below.

This data set is described as follows: yeast display, Sf9 membrane polyspecificity reagent, FACS + sequencing; frameworks hold sequencing errors. The essentials:
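Synthetic nanobody libraries on Saccharomyces cerevisiae BJ5465 were galactose-induced for 36–48 hours, stained 1 hour at 4 °C with 10% biotinylated, detergent-solubilized Sf9 membrane reagent and enriched on streptavidin microbeads. FACS then separated cells into low and high (top ~1%) gates by anti-HA (expression) and streptavidin (reagent binding) fluorescence. Genes were colony-PCR amplified, MiSeq 2 × 250 sequenced and CDR-length filtered. A clone's polyreactivity label is that of its gate of origin.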
For “QVQLVESGGGLVQAGGSLRLSCAASGITFCYYGMGRYRQAPGKERELVAAISSGGRTYYADSVKGRFTISRDNAKNTVYLQMNSLNPEDSAVYYCADRTKYIFVYQGVYWGQGTQVTVSS”, the “polyreactivity (PSR sort gate)” value is “high polyreactivity”.

In the case of “QVQLVESGGGLVQAGGSLRLSCAASGITFDANTMGWYRQAPGKERELVAVITDTGSTNYADSVKGRFTISRDNAKNTVYLQMNSLKPEDTAVYYCNADAEPSSGTSANNDYWGQGTQVTVSS”, the “polyreactivity (PSR sort gate)” value is “low polyreactivity”.

Turning to “QVQLVESGGGLVQAGGSLRLSCAASGITFDDYDMGWYRQAPGKEREFVAAISFSGSSTYYADSVKGRFTISRDNAKNTVYLQMNSLKPEDTAVYYCNADYVYSGGRYYGKDYWFDYWGQGTQVTVSS”, the “polyreactivity (PSR sort gate)” value is reported as “low polyreactivity”.

As for “QVQLVESGGGLVQAGGSLRLSCAASGITFDEYAMGWYRQAPGKERELVAVISRSGGTTYYADSVKGRFTISRDNAKNTVYLQMNSLKPEDTAVYYCNARRWGPPGYYWGQGTQVTVSS”, the “polyreactivity (PSR sort gate)” value is “high polyreactivity”.

Consider “QVQLVESGGGLVQAGGSLRLSCAASGITFDGNAMGWYRQEPGKERELVAAIDFSGGSTTYADSVKGRFTISRDNAKNTVYLQMNSLKPEDTAVYYCAAVDWYGFLAVEEYYWGQGTQVTVSS”, for which the “polyreactivity (PSR sort gate)” value was “high polyreactivity”.

For the sequence “QVQLVESGGGLVQAGGSLRLSCAASGITFDIYNMGWYRQAPGKERELVAAISYSGGSTYYADSVKGRFTISRDNAKNTVYLQMYSLKPEDTAVYYCAAYEGTYFTEVDYWGQGTQVTVSS”, the “polyreactivity (PSR sort gate)” value is recorded as “low polyreactivity”.

On to “QVQLVESGGGLVQAGGSLRLSCAASGITFDKYPMGRYRPAPGKDRELVAAISGSDGSTYYADSVKGRFTISRDNAKNSVYVQMNSLKPDDTAVYDCAAESVYAGTYEYDYWGQGTQVTVSS”, for which the “polyreactivity (PSR sort gate)” value was “low polyreactivity”.

For “QVQLVESGGGLVQAGGSLRLSCAASGITFDRYALGWYRPAPGKEREFVAAISWRGGSTYYADSVKGRFTISRDNAKNTVYLQMNSLKPEDTAVYYCAVGYYDHDYWYEYWGQGTQVTVSS”, the “polyreactivity (PSR sort gate)” value is “high polyreactivity”.

For the sequence “QVQLVESGGGLVQAGGSLRLSCAASGITFDRYAMGWYRQAPGKERELVAAITSGGRTYYADSVKGRFTISRDNAKNTVYLQMNSLKPEDTAVYYCNATRGQYVGRYYYWGQGTQVTVSS”, the “polyreactivity (PSR sort gate)” value is given as “high polyreactivity”.

As to “QVQLVESGGGLVQAGGSLRLSCAASGITFDSYAMGWYRQAPGKERELVAAISYSGGSTYYADSVKGCFTISRDNAKNTVYLQMNSLKPEDTAVYYCAAASDDDYDYWGQGTQVTVSS”, the “polyreactivity (PSR sort gate)” value was “low polyreactivity”.

In the case of “QVQLVESGGGLVQAGGSLRLSCAASGITFDSYAMGWYRQAPGKERELVATISRSGTTTYYADSVKGRFTISRDNAKNTVYLQMNSLKPEDTAVYYCNTLRAYWTYHFYGAVRDGYDYWGQGTQVTVSS”, the “polyreactivity (PSR sort gate)” value is “low polyreactivity”.

Take “QVQLVESGGGLVQAGGSLRLSCAASGITFDYYAMGWYRQAPGKERELVAAISYSGGSTYYADSVKGRFTISRDNAKNTVYVQMNSLKPEDTAVYYCAAETFTISSDYYYWGQGTQVTVSS”: the “polyreactivity (PSR sort gate)” value is recorded as “low polyreactivity”.

Turning to “QVQLVESGGGLVQAGGSLRLSCAASGITFEGYAMRWYRQAPGKERELVAAITGSGSTTYYADSVKGRFTISRDNAKNTVYLQMNSLKPEDTAVYYCAADVSYKLYWGQGTQVTVSS”, the “polyreactivity (PSR sort gate)” value is “low polyreactivity”.

For “QVQLVESGGGLVQAGGSLRLSCAASGITFEHYAMGWYREAPGKERELVAAINRSGDNTYYADSVKGRFTISRDNAKNTVYLQMNSLKPEDTAVNYCNTVELYWRGYDYWGQGTQVTVSS”, the “polyreactivity (PSR sort gate)” value is reported as “high polyreactivity”.

Consider “QVQLVESGGGLVQAGGSLRLSCAASGITFEKYAMGGYRQAPGKERELVAAITSSGGSTYYADSVKGRFTISRDNAKNTVYLQMNSLKPEDTAVYYCKARYYYADRTSGGYYYWGQGTQVTVSS”, for which the “polyreactivity (PSR sort gate)” value was “high polyreactivity”.

Turning to “QVQLVESGGGLVQAGGSLRLSCAASGITFEPYAMGWYRQAPGKEREFVADITWSGGSTYYADSVKGRFTISRDNAKNTVYLQMNSLKPEDTAVYYCAADGWTSYWSDYWGQGTQVTVAS”, the “polyreactivity (PSR sort gate)” value is “low polyreactivity”.

As to “QVQLVESGGGLVQAGGSLRLSCAASGITFERNGKGWYRQAPGKEWELVAAIRSGGSTYYADSVKGRFTISRDNAKNTVYLQMNSLKPEDTAVYYCAAVTQGGYTYLGDYWGQGTQVTVSS”, the “polyreactivity (PSR sort gate)” value was “low polyreactivity”.

On to “QVQLVESGGGLVQAGGSLRLSCAASGITFFAYAMGWYRQPPGKERELVAAISSGGSTNYADSVKGRFTISRDNAKNTVYLQMNSLKPEDTAVYYCAAVRSDLGEEGYAGYVYWGQGTQVTVSS”, for which the “polyreactivity (PSR sort gate)” value is on record as “low polyreactivity”.

As for “QVQLVESGGGLVQAGGSLRLSCAASGITFFENAMGWYRQAPGKERELVASISSSGGSTYYADSVKGRFTISRDNAKNTVYLQMNSLKPEDTAVYYCAARYYSQKSYIGFRPGYEYWGQGTQVTVSS”, the “polyreactivity (PSR sort gate)” value was “low polyreactivity”.

Regarding “QVQLVESGGGLVQAGGSLRLSCAASGITFFGYAMGWYRQAPGKERELVAGISRSTGRTYYADSVMGRFTISRDNAKYTVYLQMNSLKPEDTAVYYCDARATRSLSRYMDYWGQGTQVTVSS”, the “polyreactivity (PSR sort gate)” value is “high polyreactivity”.

Turning to “QVQLVESGGGLVQAGGSLRLSCAASGITFFRYTMGWYRQAPGKERELVAAINIRGTRTYYADSVKGRFTISRDNAKNTVYLQMNSLKPEDTAVYYCAAGYAYRYSGLSYDVDYWGQGTQVTVSS”, the “polyreactivity (PSR sort gate)” value is listed as “high polyreactivity”.

In the case of “QVQLVESGGGLVQAGGSLRLSCAASGITFFTYAMGWYRQAPGKEREFVATISYGGGSTYYADSVKGRFTISRDNAKNTVYLQMNSLKPEDTAVYYCNAEGYVPTYFQHYAYWGQGTQVTVSS”, the “polyreactivity (PSR sort gate)” value was “low polyreactivity”.

In the case of “QVQLVESGGGLVQAGGSLRLSCAASGITFFYNAMGWSRQAPGKERELVADITNSGSTYYADSVKVRFTISRDNAKNTVYLQMNSLKPEDTAVYDCAAGQAYDFFVYYPDDYWGQGTQVTVSS”, the “polyreactivity (PSR sort gate)” value was “low polyreactivity”.

Take “QVQLVESGGGLVQAGGSLRLSCAASGITFGANAMGWYRQAPGKERELVADITWSGGDTYYADSVKGRFTISRDNAKNTVYLQMNSLKPEDTAVYYCNALQPGLGSPLGEYDYWGQGTQVTVSS”: the “polyreactivity (PSR sort gate)” value is recorded as “low polyreactivity”.

In the case of “QVQLVESGGGLVQAGGSLRLSCAASGITFGCNAMGWYRQAPGKEREFVAAITFSDGSTRYADSVKGRFTISRDNAKNTVYLQMNSLKPEDTAVYYCAADTWSDKYDYWGQGTQVTVSS”, the “polyreactivity (PSR sort gate)” value was “low polyreactivity”.

For the sequence “QVQLVESGGGLVQAGGSLRLSCAASGITFGDNAMGWYRQAPGKERELVAAITLSDVDTYADSVKGRFTISRDNAKNTVYLQMNSLKPEDTAVYYCAADYYAHQDYRFDYWGQGTQVTVSS”, the “polyreactivity (PSR sort gate)” value was “low polyreactivity”.

For the sequence “QVQLVESGGGLVQAGGSLRLSCAASGITFGFNAMGWYRQAPGKERELVAAIRWGSGRTYYADSVKGRFTISRDNAKNTVYLQMNSLKPEDTAVYYCAAAPTTGKRPGYYYWGQGTQVTVSS”, the “polyreactivity (PSR sort gate)” value is “high polyreactivity”.

In the case of “QVQLVESGGGLVQAGGSLRLSCAASGITFGFYTMGWYRQAPGKERELVAAITSGGSTSYADSVKGRFTISRDNAKNTVYLQMNSLKPEDTAVYYCAADYLNPFPPYQYWKQSYDYWGQGTQVTVSS”, the “polyreactivity (PSR sort gate)” value is listed as “low polyreactivity”.

Take “QVQLVESGGGLVQAGGSLRLSCAASGITFGHYAMGWYRQAPGKERELVAAINFSGGSTYYADSVKGRFTISRDNAKNTVYLQMNSLKPEDTAVYYCAAKYSRSLRYPWYNYWGQGTQVTVSS”: the “polyreactivity (PSR sort gate)” value is listed as “high polyreactivity”.

On to “QVQLVESGGGLVQAGGSLRLSCAASGITFGLYSMGWYRQAPGKQRELVASISQSGGSTYYADSVKGRFTISRDNAKNTVYLQMNSLKPEDTAVYYCNARRRFWDFSTRGYDSWGQGTQVTVSS”, for which the “polyreactivity (PSR sort gate)” value is recorded as “high polyreactivity”.

In the case of “QVQLVESGGGLVQAGGSLRLSCAASGITFGNYAMGWYRQAPGKARELVAAITGSGGRTYYADSVKGRFTISRDNANNTVYLQMNRLKPEYTAVYYCNRRQYGRKKQYDYWGQGTQVTVSS”, the “polyreactivity (PSR sort gate)” value is given as “high polyreactivity”.

For “QVQLVESGGGLVQAGGSLRLSCAASGITFGNYAMGWYSQAPGKERELVASFSWNVGSTYYADSVKGRFTISRDNAKNTVYLQMNSLKPEDTAVYYCARGYDRPRVATFHRFDYWGQGTQVTVSS”, the “polyreactivity (PSR sort gate)” value is listed as “low polyreactivity”.

On to “QVQLVESGGGLVQAGGSLRLSCAASGITFGRNTKGWYRQAPGKERELVAAIDSGGNTYADSVKGRFTISRDNAKNTVYLQMNSLKPEDTAVYYCAADSYPAYLGFVGFDYWVQGTQVTVSS”, for which the “polyreactivity (PSR sort gate)” value is on record as “low polyreactivity”.

As for “QVQLVESGGGLVQAGGSLRLSCAASGITFGRNTKGWYRQAPGKERELVAAIDSGGNTYADSVKGRFTISRDNAKNTVYLQMNSLKPEDTAVYYCNAGYVHSFDYWGQGTQVTVSS”, the “polyreactivity (PSR sort gate)” value is recorded as “low polyreactivity”.

On to “QVQLVESGGGLVQAGGSLRLSCAASGITFGRNTMGWYRQAPGKERELVAAIDSGGNTYAVSVKGRFTISRDNAKNTVYLQMNSLKPEDTAVYYCAVDGGEYSYYGTYDYWGQGTQVTVSS”, for which the “polyreactivity (PSR sort gate)” value was “low polyreactivity”.

Turning to “QVQLVESGGGLVQAGGSLRLSCAASGITFGRNTMGWYRQAPGKERELVAAITYRSGRTYYADSVKGRFTISRDTAKNTVYLQMNILKPEDTAVYYCNTVSPYYDYDYWGQGTQVTVSS”, the “polyreactivity (PSR sort gate)” value is reported as “high polyreactivity”.

For the sequence “QVQLVESGGGLVQAGGSLRLSCAASGITFGRYAMGWYRQAPGKERELVAAISWSGGSTYYADSVKGRFTLSRDNAKNTVYLQMNSLKPEDTAVYYCAVEWYYTSYHIRFYRDNYWGQGTQVTVSS”, the “polyreactivity (PSR sort gate)” value is listed as “high polyreactivity”.

With “QVQLVESGGGLVQAGGSLRLSCAASGITFGRYAMGWYRQAPGKERELVAAITTRGGSTYYADSVKGRFTISRDNAKNTVYLQMNSLKPEDTAVYYCAADYRWAGRYYYWGQGTQVTVSS”, the “polyreactivity (PSR sort gate)” value is recorded as “high polyreactivity”.

In the case of “QVQLVESGGGLVQAGGSLRLSCAASGITFGWNAMGWYRPAPGKERELVAAITEDGDSTYYADSVKGRFTISRDNAMNTVYLQMNSLKPEDTAGYYCAAEYYDVYTYVQYDSWGQGTQVTVSS”, the “polyreactivity (PSR sort gate)” value is “high polyreactivity”.

Take “QVQLVESGGGLVQAGGSLRLSCAASGITFHRYAMGWYRQAPGKERELVAAISGSGGNTYYADSVKGRFTISRDNAKNTVYLQMNILKPEDTAVYYCAAYPSWYVYPKYYYWGQGTQVTVSS”: the “polyreactivity (PSR sort gate)” value was “high polyreactivity”.
